logFC.mWT.over.Luc data for 14 substances are collected here from US20240368668A1, “SUBSTRATES AND BIOMARKERS OF ADAMTS7” (The Broad Institute, Inc., priority 2021, published 2024).

In the experiment the target is T1, mouse ADAMTS7 (Mus musculus, UniProt Q68SA9).
T1 construct: Full-length mouse Adamts7 1-1857 (Uniprot Q68SA9, WT or E373Q catalytic mutant); expressed in transfected cells; host or cells: Human Coronary Artery Smooth Muscle Cells (HCA-SMC, Lonza), adenovirus 50 MOI
T1 sequence (Q68SA9 221-1657): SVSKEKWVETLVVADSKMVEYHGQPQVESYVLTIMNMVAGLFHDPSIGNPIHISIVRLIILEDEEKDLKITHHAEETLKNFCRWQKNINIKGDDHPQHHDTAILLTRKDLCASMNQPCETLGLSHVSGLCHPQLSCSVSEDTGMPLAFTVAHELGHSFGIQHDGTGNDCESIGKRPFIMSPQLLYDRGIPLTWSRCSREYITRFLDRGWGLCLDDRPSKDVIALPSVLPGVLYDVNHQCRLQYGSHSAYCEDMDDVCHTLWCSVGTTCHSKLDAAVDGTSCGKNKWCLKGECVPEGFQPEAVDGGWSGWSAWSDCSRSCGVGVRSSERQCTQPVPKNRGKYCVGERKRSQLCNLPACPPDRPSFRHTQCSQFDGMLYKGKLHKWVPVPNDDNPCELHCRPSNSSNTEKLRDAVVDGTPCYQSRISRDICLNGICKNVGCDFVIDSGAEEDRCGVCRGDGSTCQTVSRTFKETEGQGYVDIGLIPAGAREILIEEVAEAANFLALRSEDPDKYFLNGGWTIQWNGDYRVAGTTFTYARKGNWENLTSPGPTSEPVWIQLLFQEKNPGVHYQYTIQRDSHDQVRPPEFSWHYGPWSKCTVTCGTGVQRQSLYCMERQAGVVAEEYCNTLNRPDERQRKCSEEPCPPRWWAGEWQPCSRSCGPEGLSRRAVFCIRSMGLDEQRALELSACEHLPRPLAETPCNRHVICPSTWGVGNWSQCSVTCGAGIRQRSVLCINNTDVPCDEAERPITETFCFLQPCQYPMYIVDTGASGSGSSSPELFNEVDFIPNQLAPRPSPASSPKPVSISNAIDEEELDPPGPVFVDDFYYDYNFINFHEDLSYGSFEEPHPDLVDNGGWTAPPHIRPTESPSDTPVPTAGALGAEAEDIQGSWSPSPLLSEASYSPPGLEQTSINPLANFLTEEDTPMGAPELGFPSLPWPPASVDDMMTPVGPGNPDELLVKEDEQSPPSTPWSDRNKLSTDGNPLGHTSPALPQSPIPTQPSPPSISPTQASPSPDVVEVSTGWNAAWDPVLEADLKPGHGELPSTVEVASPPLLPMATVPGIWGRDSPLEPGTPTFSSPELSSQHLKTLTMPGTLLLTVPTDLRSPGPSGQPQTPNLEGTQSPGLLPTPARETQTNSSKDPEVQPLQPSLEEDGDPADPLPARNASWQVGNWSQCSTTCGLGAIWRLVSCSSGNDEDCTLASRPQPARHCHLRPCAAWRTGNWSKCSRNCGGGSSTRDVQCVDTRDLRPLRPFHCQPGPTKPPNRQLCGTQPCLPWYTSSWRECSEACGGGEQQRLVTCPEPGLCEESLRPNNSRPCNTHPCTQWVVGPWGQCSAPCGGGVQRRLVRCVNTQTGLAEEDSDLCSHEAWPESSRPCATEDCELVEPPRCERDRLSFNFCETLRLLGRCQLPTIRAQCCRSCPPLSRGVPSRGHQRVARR
Briefly: TMT10 TAILS N-terminomics, HUVEC experiment (process replicates, trypsin/AspN digest). Type of experiment: cell-based, human. Particulars: HUVEC TAILS HC; log fold change of N-terminal peptide, Ad-mADAMTS7 WT over Luc. An excerpt:
ADAMTS7 Expression, Cell Culture and Preparation of the Secreted Proteins—Full-length mouse Adamts7 1-1857 (Uniprot Q68SA9, WT or E373Q catalytic mutant) with a carboxyl terminal 3xFLAG tag was used to generate custom adenoviruses as previously described. Adeno-CMV-Luciferase (Ad-Luc) from Vector Biolabs was used as a negative control. Human Coronary Artery Smooth Muscle Cells (HCA-SMC) were obtained from Lonza and expanded in Lonza SmGM-2 media in 15 cm tissue culture plates. Twenty-four hours before media collection, near confluent plates were transduced with 50 MOI adenovirus and switched to Lonza Basal SM media with volumes of 20 ml per 15 cm plate. Expression of the Flag tagged ADAMTS7 was confirmed from the media using western blot and detected using the anti-Flag M2-HRP antibody (Sigma, A8592). Collected media was processed by adding protease inhibitors (1 mM EDTA and 1 mM PMSF) and clarified by 500 g×5 min spin at 4 C to pellet cell debris. Cell media supernatants were then passed through a 0.22 um filter and kept chilled. Processed media was then concentrated 50-100× using 3 kDa Centricon Plus-70 filter unit, spun at 3,500 g×60 min at 4 C. Approximately 10% of the processed, concentrated media was set aside for total secretome proteolytic analysis. The remaining 90% of the processed, concentrated media was buffer exchanged into 50 mM HEPES pH 8.0, 150 mM NaCl (2×50 ml) using the 3 kDa Centricon Plus-70 filter unit and concentrated to >2 mg/ml to serve as input for the TAILS experiment. Secretome and TAILS input samples were stored at −80° C.
For the first experiment, referred to as SMC1, 120 ml of media from 6×15 cm dishes was pooled from each condition (Luc, WT, EQ) and processed to produce three separate inputs for the TAILS experiment. Luc, WT and EQ inputs from the SMC1 experiment were each divided into triplicate 400 ug samples to generate technical replicate TAILS data. For the second experiment, referred to as SMC2, media was processed separately in triplicate for each condition (Luc1, Luc2, Luc3, WT1, WT2, WT3, EQ1, EQ2, EQ3) using 60 ml of media from 3×15 cm dishes for each process replicate. Inputs from the SMC2 experiment used process replicates of 300 ug each to generate TAILS data. The third experiment used input from cultured Human umbilical vein endothelial cells (HUVEC) from Lifeline Cell Technology grown in VascuLife Media and transduced in Lifeline Basal EC (+bFGF2 10 ng/ml). The HUVEC experiment used the same strategy as the SMC2 experiment, with 40 ml of media from 2×15 cm dishes for each process replicate and used 200 ug each to generate TAILS data. Inputs for process replicate experiments were restricted to the lowest concentration from the 9 parallel samples for SMC2 or HUVEC.
TMT10 isotopic labeling and negative selection of non-labeled peptides-Sample preparation was performed based on the TAILS protocol from the Overall lab with some modifications. From a single experiment, nine parallel protein samples in 50 mM HEPES pH 8.0, 150 mM NaCl were separately denatured with guanidinium chloride (Sigma, G4505) to reach a final concentration of 2.5M guanidinium chloride and 250 mM HEPES and incubated at 65° C. for 15 min. Reduction was achieved through addition of tris(2-carboxylethyl) phosphine (TCEP) at a final concentration of […] and incubated at 65° C. for 45 min. Alkylation reaction was performed with addition of iodoacetamide (IAA, Sigma, A3221) to a final concentration of 10 mM IAA for 15 min at room temperature in the dark. Following denaturation, reduction and alkylation steps, ten percent of each of the nine parallel protein samples was removed and combined to serve as a pooled reference. Isobaric tags were added to free amine groups using the TMT10plex Isobaric Mass Tagging Kit (ThermoFisher, 90113) with TMT channels randomly assigned to the nine samples and TMT 131 assigned to the pooled reference. […]
Substance “AEBP1_37 (FLEGFLSELEPEPR; listed as Homo sapiens)” showed a logFC.mWT.over.Luc of 3.77.

Consider “EFEMP1_124 (AVAGPEMQTGR; listed as Homo sapiens)”, for which the logFC.mWT.over.Luc was 2.92.

As for “FBN1_29 (LEAGNVKETR; listed as Homo sapiens)”, the logFC.mWT.over.Luc is recorded as 3.57.

With “FLNA_1285 (LTQTGGPHVKAR; listed as Homo sapiens)”, the logFC.mWT.over.Luc amounted to 3.29.

Consider “FN1_36 (MVQPQSPVAVSQSKPGCYDNGKHYQINQQWER; listed as Homo sapiens)”, for which the logFC.mWT.over.Luc is 2.98.

The substance “FN1_40 (QSPVAVSQSKPGCYDNGKHYQINQQWER; listed as Homo sapiens)” yielded a logFC.mWT.over.Luc of 2.45.

“FN1_886 (NQESTPVVIQQETTGTPR; listed as Homo sapiens)” had a logFC.mWT.over.Luc of 1.61.

The substance “FN1_1143 (LTPGVEYVYTIQVLR; listed as Homo sapiens)” registered a logFC.mWT.over.Luc of 3.43.

“FN1_1656 (SSSPVTGYR; listed as Homo sapiens)”: the logFC.mWT.over.Luc is on record as 1.56.

Turning to “HSPG2_2331 (ANLAYPAGSTQPIR; listed as Homo sapiens)”, the logFC.mWT.over.Luc came out at 1.72.

For “IGFBP7_101 (AAGGPGVSGVCVCKSR; listed as Homo sapiens)”, the logFC.mWT.over.Luc was found to be 1.86.

As to “LOXL2_37 (FQQPAPEYHQPQAPANVAKIQLR; listed as Homo sapiens)”, the logFC.mWT.over.Luc was 2.82.

On to “LOX_124 (WFQAGYSTSR; listed as Homo sapiens)”, for which the logFC.mWT.over.Luc is 3.38.

Take “LTBP1_393 (LTATNFR; listed as Homo sapiens)”: the logFC.mWT.over.Luc was 3.14.
